The nature of the series: protease stability score; higher = more stable; yeast display proteolysis, trypsin and chymotrypsin.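 Also: log10 excess protease needed over predicted unfolded state with 0 meaning unfolded.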
“DDEEARHRLSRISKMLEENDPQRFSNQADEDVRVDIGDKEIHGKEEVARQLTEWRKQVDHVRVTSVEVQGDHASVQFRADVNGRHRVLTLYMKWTNGRVKEMHIKEG” registered a protease stability score of 0.857.

“DDQKNLEKWVRDFQEVNKTGDPDRFRNLFPPNAEMTIGDKTIKGSETVREYMEHLVNRYDHLDVQVESIHAEGDKLTVKLRLVFNTNGKNDQYVNKVLLDDHNGRLKAHEVHQE” showed a protease stability score of 0.7. The result for “DEHAHRQFKHYLDALKENNEEDLKKQMDKDAEAKYGNQELHGRDDAARHLKRELEEIRVDITEYRIRNQGNNIEAHVRFVVKHNGQPSKMTVLITASADENHMRTIEFDEKK” reads 0.248. The result for “DDDAVRLFKEELKAEKNNNPDKIRELADPNARFKVGDKTVHGRESWARTVETRAREIRNDIDVKSYDNDNGRADIKMTVHQEENGRPQHNEASANITADNGRLKEVQIHSRP” reads -0.356. In the case of “DEEEAKKVMEKWMKVVQKGDKDKVKKLYPPNVNWLNINTQKQGVEVVVKMMKQVQDKGAQFQVRRAEVKGDEAEMQYDLRIGDKTATFTVRIRAKGGQVEMVEVKVTEEAKKIVDTG”, the protease stability score is 0.111. The result for “DKDAVKRFEELLRALDTNNSEQVKDLLDKNVQFRVGDKVIHGMEEAVRRQIQHNNEIRVEKEIKSIDDHNGRIHVDMTREWEHNGQPRSEKVKFTIEMHNGRVQVDNQKVTS” reads -0.098; that for “DEEHITNVVKKMVNALRTGDPDTARELADPNVTAEYGDKEIRGREEVSKMVKLLHKQADHVTVKDVKVTNGHMEVRRRQHVNGKEIQMTLEARVHNGKIQEMRVHKK”, -0.305. Under “DEESDKKFLEKIRKLFEDGDPDQFRKMFPPDATAVIGDKSVHGNQVEQAVNTFEKNRADHVRIDSFEVSNGRVDIDVVVNHNGEERRIKIVFIARNGRLEHMRFVST” stands 0.215; under “DDELHKLAEEFVTALQKGDPDRANSLFDPNAKFVVGDEVLHGREDFEKWLDELKHQMRIQFESVKIDKRPGRIIIDNVFRVHVNGKPDQIRIEIDIQVHNGKIKEVIYRMDPDKFREVMS”, 1.3; under “DDSNNEIVKHMLEALHTGDPDQMSRLVDPNVRVNVGNKEVHGREQQREEVEKIKRDMRFEADLDDYHVHGEHLEFKVTYKAQINGKPYHFSADLNLTFHNGKLQSESARMDQHELEKLDG”, 0.029. Under “DESQHQSLAKNLVRIFEEGDEDDVRKLADKDARLEVGDHELRGREQVAKFYKRVRDRIDELEIRDVHVQGERVSVHVVVRYNGRHVDFKINIVAHNGRITRVRVDPDRFRQLHS” stands 1.64; under “EDKAKTLLQQYMEAVHQGDPKQVEEMLDPNAQVVIGDKSVRGQNQIQQMVRKLHQHARIDIHVKDLKADGNNVHLTFSQKVEVNGRPERDEATATMVVDNGRAQYLQIEMDETFQRQLEK”, -0.341; under “DDEANRVARHFVKALRKGDPDRLREMVDPNAKVVVGDQSWHGRDSLHHILEREIKEIRISIKDVKFQDQGDKANVEMRVESKHNGQPSESSSSVIVVVRNGRIQEIDMKTSG”, 0.291. “DQENLELMNRLLEAISSNDESKFRRLVDPNVRVVIGDEQYHGRETLQKLLRDHNEHSRNDEHIHRVELHNGRVNMDVTREVDHNGRPQTDKFEIVATANNGKAVRMRFERTS” yielded a protease stability score of -0.164.

Regarding “DEEDLKRVVDILHQNDPDQMIEMADENVKLEVGDKEFHGREEFSKFQRRIRDAVDHVEVKSLSHHNGRINMTFVLQINGRRIEFSAVVRVHNGKIKSMKVNATNEDDQSRFESQLS”, the protease stability score stood at 0.192. The result for “EEESHQVAENIARILQTNDPRRLAELMDENARVRVGDTQLSGREDIEKQMDKEMKEIRVEIKNYEIDAKGEKIDIDVDQVFVHNGKPDRQRVKYDFDLRNGQIKRASVSVHK” reads -0.188; that for “TEEDVLKVLETLMKAFFDGNPKEVKEMGKEDVKFQVGDQEVRGVDQMTKRVKEYRDQGIEFHLKRYKVEGDQVTAEAEVVMGDKKARVTAHYKADDGRVDETRVEMSDEAKKLFKHG”, 0.432; that for “DEKKVKELIDQVVEAIQKGDVEHLLKLGKPDVTFTVGDVEIRGLEHLKKYYKQVKDDGAELHVKKVEVKGNTAQVHYDMKYGGTKATVTVNIEAKDHKVDRAEAKMDKDYLKYVRDG”, 0.644.

These data come from the NTF2 design screens of Basanta et al. (2020).
